{"source": "paper PMC7104937", "binders": {"B1": {"name": "soluble ectodomain protein of human CD26 (hCD26), P27487 29-766 (receptor)", "chain": "NKGTDDATADSRKTYTLTDYLKNTYRLKLYSLRWISDHEYLYKQENNILVFNAEYGNSSVFLENSTFDEFGHSINDYSISPDGQFILLEYNYVKQWRHSYTASYDIYDLNKRQLITEERIPNNTQWVTWSPVGHKLAYVWNNDIYVKIEPNLPSYRITWTGKEDIIYNGITDWVYEEEVFSAYSALWWSPNGTFLAYAQFNDTEVPLIEYSFYSDESLQYPKTVRVPYPKAGAVNPTVKFFVVNTDSLSSVTNATSIQITAPASMLIGDHYLCDVTWATQERISLQWLRRIQNYSVMDICDYDESSGRWNCLVARQHIEMSTTGWVGRFRPSEPHFTLDGNSFYKIISNEEGYRHICYFQIDKKDCTFITKGTWEVIGIEALTSDYLYYISNEYKGMPGGRNLYKIQLSDYTKVTCLSCELNPERCQYYSVSFSKEAKYYQLRCSGPGLPLYTLHSSVNDKGLRVLEDNSALDKMLQNVQMPSKKLDFIILNETKFWYQMILPPHFDKSKKYPLLLDVYAGPCSQKADTVFRLNWATYLASTENIIVASFDGRGSGYQGDKIMHAINRRLGTFEVEDQIEAARQFSKMGFVDNKRIAIWGWSYGGYVTSMVLGSGSGVFKCGIAVAPVSRWEYYDSVYTERYMGLPTPEDNLDHYRNSTVMSRAENFKQVEYLLIHGTADDNVHFQQSAQISKALVDVGVDFQAMWYTDEDHGIASSTAHQHIYTHMSHFIKQCFSLP"}}, "target": "soluble ectodomain protein of human CD26 (hCD26) (human), P27487", "assay": "crystal structure", "conditions": "remark: other sources report otherwise", "data": [{"binder": "B1", "values": [{"measurement": "stoichiometry N", "result": 2}]}]}
